Consider four molecules from US20250152743A1, “SYNPOPTOSIS CIRCUITS FOR PROGRAMMABLE CELL DEATH CONTROL” (California Institute of Technology, priority 2023, published 2025).

Like-named read-outs stand apart in the source and are kept apart here.

The subject of the test is HEK cells. The experiment in a line: Transient DNA transfection of HEK cells, Annexin/Sytox staining, flow cytometry. It counts as cell-based, human. Here is the method: HEK cells were transiently co-transfected with DNA encoding the circuits, often along with Cherry, a fluorescent protein marker, and cells were analyzed by flow cytometry 16 to 24 hours later. To quantify cell death, the cells were strained with Annexin, Sytox, or both. Annexin stains apoptotic cells by binding to phosphatidylserine exposed on the outer leaflet, and pyroptotic cells by binding to phosphatidylserine in the inner leaflet after membrane permeabilization. In contrast, Sytox, a membrane-impermeable dye, primarily stains pyroptotic cells. Therefore, apoptotic cells are typically Annexin-high and Sytox-low, while pyroptotic cells are Annexin-high and Sytox-high (FIG. 7B). For simplicity, in experiments involving only a single death mode, a single relevant dye was often used. To focus on cells influenced by the circuits, the fraction of Annexin- or Sytox-positive cells was calculated after gating on the fluorescent co-transfection marker (FIG. 7C).
On the day before transfection, HEK cells were seeded at a density of 0.3-0.6 million cells per well on a 12-well plate, 0.1-0.3 million cells per well on a 24-well plate, or 15,000-50,000 cells per well on a 96-well plate. The cells were allowed to attach to the plate overnight, for at least 8 hours. On the day of transfection, we treated the cells with purified DNA plasmids encoding circuit components. In addition to plasmids encoding circuit components, we often included a plasmid encoding a fluorescent co-transfection marker, at roughly 50 ng DNA per well on a 24-well plate. Given the different number of molecular components in each synthetic circuit and their various relative ratios, the total amount of DNA ranged from 50 to 1 μg per well on a 24-well plate, and was scaled by […] when other 12-well or 96-well plates were used, respectively. On the same plate, we often equalized the total amount of DNA across all transfected wells, using a filler plasmid encoding the neomycin resistance gene. To transfect cells with plasmid DNA, we used three types of transfection reagents—Lipofectamine 2000 (Thermo Fisher), Lipofectamine 3000 (Thermo Fisher), and FuGENE HD (Promega), according to manufacturers' instructions. Briefly, for a typical transfection experiment on a 24-well plate, we mixed plasmids and the transfection reagent, around 200 ng of DNA per 1 μl of Lipofectamine 2000, in 25 μl of Opti-MEM reduced serum medium (Thermo Fisher), incubated the mixture for 5-10 min at room temperature, and then added another 25 μl of Opti-MEM before transferring the mixture dropwise to culture wells. We also performed some transfection experiments using the Lipofectamine 3000 kit (Thermo Fisher), at a ratio of 2,000 ng of DNA, 2 ul of 4 ul of P3000, and 3 μl of Lipofectamine 3000. We similarly diluted the mixture in Opti-MEM before adding it to cells. For transfection with FuGENE, we used a ratio of 4 μl FuGENE:1 μg of DNA, and incubated the DNA-FuGENE mixture at room temperature for 5 min before transfection. To enable protein expression from plasmids with a doxycycline-inducible promoter, doxycycline was added to the cell culture at a final concentration of 100 ng/mL. In experiments involving Q-VD-OPh, the compound was added to the cell culture at a final concentration of 30 μM, immediately after the cells received the transfection mixture. To transfect cells with in vitro transcribed mRNA, Lipofectamine MessengerMax (Thermo Fisher) was used. Briefly, for transfection of one well in a 96-well plate, 0.1 μL of Lipofectamine MessengerMAX was diluted in 1.25 μL Opti-MEM and incubated for 10 minutes at room temperature. mRNA was then added to Opti-MEM to the appropriate conditions at the following amounts: 12.5 ng of fluorescent co-transfection marker, 56.25 ng of protease, and 56.25 ng of engineered executioner. Diluted mRNA was then added to diluted MessengerMAX reagent and incubated for 5 minutes at room temperature before addition to Jurkat or THP-1 cells in RPMI media. […]

Setting [1] is: co-transfected with wildtype GSDME, TEVP and TEVP-activatable caspase-3.

B1: silencer: leucine zipper-fused GSDMA C-terminal domain; SEQ ID NO: 43 (protein)
chain: MGSEQLEKKLQALEKKLAQLEWKNQALEKKLAQGGSGSSMHEDFKTLKEEVQRETQEVEKLSPVGRSSLLTSLSHLLGKKKELQDLEQKLEGALDKGQKVTLEALPKDVLLSKDAMDAILYFLGALTELTEEQLKILVKSLEKKILPVQLKLVESTLEQNFLQDKEGVFPLQPDLLSSLGEEELTLTEALVGLSGLEVQRSGPQYAWDPDTRHNLCALYAGLSLLHLLSRKSNALTYCALS
As to B1, the “inhibition of pyroptosis induced by wildtype GSDMA N-terminal domain” value is “did not inhibit pyroptosis” and the “inhibition of pyroptosis induced by zipper-attached GSDMA N-terminal domain (GSDMA N-Z)” value is listed as “markedly suppressed pyroptosis”. In addition, the “inhibition of pyroptosis induced by zipper-attached GSDMA N-terminal domain (GSDMA N-Z)” value (listed as GSDMA Z-C) is “potently inhibited an engineered active executioner”.

B2: FIG. 1D, third module: GSDMA N-terminal domain fused to TEVP-removable degron; SEQ ID NO: 18 (protein)
chain: MGSPVFEDVTRALVRELNPRGDLTPLDSLIDFKHFRPFCLVLRKRKSTLFWGARYVRTDYTLLDLLEPGSSPSDLTDSGNFSFKNMLDVQVQGLVEVPKTVKVKGTAGLSQSSTLEVQTLSVAPSALENLKKERKLSADHSFLNEMRYHEKNLYVVMEAVEAKQEVTVEQTGNANAIFSLPSLALLGLQGSLNNNKAVTIPKGCVLAYRVRLLRVFLFNLWDIPYICNDSMQTFPKIRRVPCSAFISPTQMISEEPEEEKLIGEGGSGLENLYFQSGSGSISLIAALAVDYVIGMENAMPWNLPADLAWFKRNTLNKPVIMGRHTWESIGRPLPGRKNIILSSQPSTDDRVTWVKSVDEAIAACGDVPEIMVIGGGRVIEQFLPKAQKLYLTHIDAEVEGDTHFPDYEPDDWESVFSEFHDADAQNSHSYCFEILERR
B2: the “pyroptosis, Sytox staining” value (with TEVP / cognate protease) is “removal of the degron by TEVP also induced pyroptosis”.

B3: tobacco vein mottling virus protease (protein)
chain: MGSSKALLKGVRDFNPISACVCLLENSSDGHSERLFGIGFGPYIIANQHLFRRNNGELTIKTMHGEFKVKNSTQLQMKPVEGRDIIVIKMAKDFPPFPQKLKFRQPTIKDRVCMVSTNFQQKSVSSLVSESSHIVHKEDTSFWQHWITTKDGQCGSPLVSIIDGNILGIHSLTHTTNGSNYFVEFPEKFVATYLDAADGWCKNWKFNADKISWGSFTLVEDAPEDDFMAKKTVAAIMDS
notes: viral input protease
B3: the “activation of cognate engineered GSDMs containing the cleavage sites” value (tev, tvmv and hcv sites) is “orthogonally activated their cognate engineered GSDMs”.

B4: I217N: GSDME N-terminal domain mutant I217N; SEQ ID NO: 22 (protein)
chain: MGFAKATRNFLREVDADGDLIAVSNLNDSDKLQLLSLVTKKKRFWCWQRPKYQFLSLTLGDVLIEDQFPSPVVVESDFVKYEGKFANHVSGTLETALGKVKLNLGGSSRVESQSSFGTLRKQEVDLQQLIRDSAERTINLRNPVLQQVLEGRNEVLCVLTQKITTMQKCVISEHMQVEEKCGGIVGIQTKTVQVSATEDGNVTKDSNVVLEIPAATTNAYGVIELYVKLDGQFEFCLLRGKQGGFENKKRIDSVYLDPLVFREFAFIDMPD
Consider B4, for which the “inhibition of wildtype GSDME N-induced pyroptosis” value is “capable of inhibiting the wildtype counterpart” and the “pyroptotic activity of GSDME N-terminal domain mutant” value was “defective in inducing pyroptosis”. Also, under setting [1], the “apoptosis, Annexin levels” value is reported as “permitting caspase-3-induced apoptosis, as read out by high Annexin levels” and the “pyroptosis, Sytox uptake” value is reported as “suppressed pyroptosis, as evidenced by reduced Sytox uptake”. Besides, the “pyroptosis, Sytox uptake” value (co-transfected with wildtype GSDME, TEVP and TEVP-activatable caspase-3, listed as GSDME inhibitor) was “pyroptosis could be attenuated to various degrees”. In addition, the “inhibition of wildtype GSDME N-induced pyroptosis” value (listed as GSDME N(mut)) is on record as “inhibited wildtype GSDME N-induced pyroptosis”.
